In PMC7515715 (Nucleic Acids Research, 2020):

Target: the molecule itself
Assay: cryo-EM structure

B1: E. coli stringent starvation protein A (SspA), wild type (natural protein)
chain: MAVAANKRSVMTLFSGPTDIYSHQVRIVLAEKGVSFEIEHVEKDNPPQDLIDLNPNQSVPTLVDRELTLWESRIIMEYLDERFPHPPLMPVYPVARGESRLYMHRIEKDWYTLMNTIINGSASEADAARKQLREELLAIAPVFGQKPYFLSDEFSLVDCYLAPLLWRLPQLGIEFSGPGAKELKGYMTRVFERDSFLASLTEAEREMRLGRS
B1 was tested, and the “stoichiometry N” value was 2.
